Ends that are not written are not given here.

The record followed here is patent US20210101973A1.

Assay [1] concerns the target GHSR on the PathHunter U2OS GHSR beta-Arrestin Cell Line (DiscoverX), Q92847. Kind of assay: cell-based or functional assay.
Assay [2] deals with wild-type GHSR stably expressed in an independent cell line (calcium mobilization assay), Q92847. Kind of assay: cell-based or functional assay.
Chain of wild-type GHSR stably expressed in an independent cell line (calcium mobilization assay), Q92847 (Q92847 whole entry): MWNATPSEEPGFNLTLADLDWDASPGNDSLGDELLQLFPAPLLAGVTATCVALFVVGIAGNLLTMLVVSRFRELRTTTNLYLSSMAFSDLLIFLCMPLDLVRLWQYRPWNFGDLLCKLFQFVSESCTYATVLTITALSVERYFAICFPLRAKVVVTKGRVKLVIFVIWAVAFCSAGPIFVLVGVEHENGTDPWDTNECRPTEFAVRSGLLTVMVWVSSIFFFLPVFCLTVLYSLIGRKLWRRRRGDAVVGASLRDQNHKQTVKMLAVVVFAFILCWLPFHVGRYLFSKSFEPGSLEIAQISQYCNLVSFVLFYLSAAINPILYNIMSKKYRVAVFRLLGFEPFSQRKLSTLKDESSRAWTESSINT

B1: synthetic LEAP2 peptide (mature peptide of human LEAP2) (peptide)
peptide: MTPFWRGVSLRPIGASCRDDSECITRLCRKRRCSLSVAQE
modifications: disulfide (positions not given here); also: labeled with Alexa 647, site not given here
Turning to B1, the IC50 of inhibition of ghrelin-induced GHSR activation, PathHunter beta-arrestin assay, antagonist format (ghrelin 13 nM) in assay [1] came out at 6.74 nM. Also, the IC50 of abrogation of ghrelin-induced GHSR activity, calcium mobilization (FLUO-3) in assay [2] came to 11.6 nM.
